# US20110009316A1
# Tests used:
# [1] = molecular target: commercially available recombinant VEGF165 protein (R&D Systems) (UniProt P15692)
# MutAla = MutAla (UniProt P15692)
# MutGln = MutGln (UniProt P15692)
# [2] = molecular target: VEGF165 wild type synthesized in COS-1 cells (UniProt P15692)
# [3] = molecular target: commercially available recombinant VEGF165 protein (R&D Systems) (UniProt P15692); test: cell-based or functional assay
# [4] = molecular target: VEGF165 wild type synthesized in COS-1 cells (UniProt P15692); test: cell-based or functional assay
# Sequence of MutPro (chain, as listed by the source): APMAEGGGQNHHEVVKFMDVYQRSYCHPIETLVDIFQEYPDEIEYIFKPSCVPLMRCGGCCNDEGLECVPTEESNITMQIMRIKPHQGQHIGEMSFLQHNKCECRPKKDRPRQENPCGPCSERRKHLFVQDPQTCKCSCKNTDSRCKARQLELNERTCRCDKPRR
# Sequence of MutLys-Pro (chain, as listed by the source): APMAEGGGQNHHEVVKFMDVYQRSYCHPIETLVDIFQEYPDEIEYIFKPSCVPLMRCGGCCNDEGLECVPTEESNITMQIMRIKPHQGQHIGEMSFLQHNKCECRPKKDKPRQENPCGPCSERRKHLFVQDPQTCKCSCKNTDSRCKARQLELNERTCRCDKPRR
substance,measurement,setting,value
plasmin,"degradation on incubation with plasmin [0.01 U/ml], Western blotting and immunodetection",[1],the degradation pattern is similar to that of the commercially obtainable VEGF165
same,"degradation on incubation with plasmin [0.01 U/ml], Western blotting and immunodetection",MutLys-Pro,also show a comparable stability of the signal bands at 45 and 42 kDA after incubation with plasmid for 240 minutes
same,"degradation on incubation with plasmin [0.01 U/ml], Western blotting and immunodetection",MutAla,the mutated protein shows no change in the migration behaviour up to 240 minutes after incubation
same,"degradation on incubation with plasmin [0.01 U/ml], Western blotting and immunodetection",MutPro,also show a comparable stability of the signal bands at 45 and 42 kDA after incubation with plasmid for 240 minutes
same,"degradation on incubation with plasmin [0.01 U/ml], Western blotting and immunodetection",MutGln,also show a comparable stability of the signal bands at 45 and 42 kDA after incubation with plasmid for 240 minutes
same,"degradation on incubation with plasmin [0.01 U/ml], Western blotting and immunodetection",[2],shows degradation of the growth factor after only 15 minutes
plasmin (enzyme),loss of biological activity (BrdU incorporation into HUVE cells) 20 minutes after incubation with plasmin,[3],> 20%
same,remaining biological activity (BrdU incorporation into HUVE cells) after 240 minutes with plasmin (% of the initial activity),[3],50
same,loss of biological activity (BrdU incorporation into HUVE cells) 20 minutes after incubation with plasmin,[4],> 20%
same,remaining biological activity (BrdU incorporation into HUVE cells) after 240 minutes with plasmin (% of the initial activity),[4],50
